Assays:
[1] = biological target: T1, von Willebrand factor full length (Homo sapiens, UniProt P04275 SEQ:764-2813); assay: flow; range 1.3-370 nM; settings: tags: Calbiochem 681300
Method: Aptamer potency to block human vWF binding to lyophilized platelets was assessed by flow cytometric analysis. Titrations of aptamers (0 nM, 0.1 nM to 1000 nM) were pre-incubated briefly with 5 nM of full length human vWF in FACS buffer (PBS plus 0.5% bovine serum albumin) at room temperature in a volume of 50 uL. Another 50 uL containing 5 uL of lyophilized platelets plus 1 uL of 0.1 U/uL of botrocetin in FACS buffer was added to aptamer/vWF. This reaction was allowed to proceed for 15 minutes at 37 degrees C. after which 200 uL of FACS buffer was added. […] The pellets were resuspended in 100 uL of FACS buffer containing a 1:100 dilution of anti-vWF antibody and were incubated at room temperature for 30 minutes. […] The pellets were resuspended in a 1:100 solution of anti-IgG2a-FITC antibody and were incubated in the dark for 30 minutes at room temperature. The entire 100 uL was diluted into 200 uL of FACS buffer and analyzed immediately by flow cytometric analysis in the FACSCAN. […] Mean fluorescent intensity (“MFI”) readings were quantified for each sample analyzed by flow cytometry. […] IC₅₀ values were determined by fitting the percent inhibition of vWF binding to platelets as a function of aptamer concentration to the equation: % inhibition=% inhibitionₘₐₓ/(1+IC₅₀/aptamer conc.)

[2] = biological target: T1, von Willebrand factor full length; assay: filter; 22.6% bound at 100 nM vWF; settings: tags: Calbiochem 681300; label: 5'-32P
Method: (§1) For KD determination, chemically synthesized aptamers were purified using denaturing polyacrylamide gel electrophoresis, 5′end labeled with γ-³²P ATP and were tested for direct binding to full length human vWF (Calbiochem Cat.# 681300, La Jolla, Calif.). An 8 point protein titration was used in the dot blot binding assay (100 nM, 30 nM, 10 nM, 3 nM, 1 nM, 300 pM, 100 pM, 0 pM)) in 1× Dulbecco's PBS containing […] (final volume of 50 uL) for 30 minutes at room temperature. KD values were calculated by fitting the equation y=(max/(1+K/protein))+yint using KaleidaGraph (KaleidaGraph v. 3.51, Synergy Software).

[3] = biological target: T1, von Willebrand factor full length; assay: filter; 19.2% bound at 100 nM vWF; settings: tags: Calbiochem 681300; label: 5'-32P
Method: as §1

[4] = biological target: T1, von Willebrand factor full length; assay: filter; 55% bound at 100 nM; settings: tags: Calbiochem 681300
Method: as §1

[5] = biological target: T1, von Willebrand factor full length; assay: filter; 33% bound at 100 nM; settings: tags: Calbiochem 681300
Method: as §1

[6] = biological target: T1, von Willebrand factor full length; assay: filter; 51% bound at 100 nM; settings: tags: Calbiochem 681300
Method: as §1

[7] = biological target: T1, von Willebrand factor full length; assay: filter; 44% bound at 100 nM; settings: tags: Calbiochem 681300
Method: as §1

[8] = biological target: T1, von Willebrand factor full length; assay: filter; 42% bound at 100 nM; settings: tags: Calbiochem 681300
Method: as §1

[9] = biological target: T1, von Willebrand factor full length; assay: filter; 47% bound at 100 nM; settings: tags: Calbiochem 681300
Method: as §1

[10] = biological target: T1, von Willebrand factor full length; assay: filter; 51% bound at 100 nM vWF; settings: tags: Calbiochem 681300; label: 5'-32P
Method: as §1

[11] = biological target: T1, von Willebrand factor full length; assay: filter; 26.5% bound at 100 nM vWF; settings: tags: Calbiochem 681300; label: 5'-32P
Method: as §1

[12] = biological target: T1, von Willebrand factor full length; assay: filter; 38.5% bound at 100 nM vWF; settings: tags: Calbiochem 681300; label: 5'-32P
Method: as §1

[13] = biological target: T1, von Willebrand factor full length; assay: filter; 29.0% bound at 100 nM vWF; settings: tags: Calbiochem 681300; label: 5'-32P
Method: as §1

[14] = biological target: T1, von Willebrand factor full length; assay: filter; 38.2% bound at 100 nM vWF; settings: tags: Calbiochem 681300; label: 5'-32P
Method: as §1

[15] = biological target: T1, von Willebrand factor full length; assay: filter; 29% bound at 100 nM vWF; settings: tags: Calbiochem 681300; label: 5'-32P
Method: as §1

[16] = biological target: T1, von Willebrand factor full length; assay: filter; 32% bound at 100 nM; settings: tags: Calbiochem 681300
Method: as §1

[17] = biological target: T1, von Willebrand factor full length; assay: filter; 54% bound at 100 nM; settings: tags: Calbiochem 681300
Method: as §1

[18] = biological target: von Willebrand factor A1 domain (human) (Homo sapiens, UniProt P04275 SEQ:13-246); assay: filter; 100 nM protein
Excerpt: When a significant positive ratio of binding of RNA in the presence of human or rabbit vWF A1 domain (SEQ ID NOS […] and 6, respectively) versus in the absence of protein was seen, the pools were cloned using the TOPO TA cloning kit (Invitrogen Cat.# 45-0641, Carlsbad, Calif.) according to the manufacturer's instructions. Round 9 and 12 pool templates were cloned and sequenced (185 total sequences), producing 78 unique clones within 3 sequence families. All unique clones were transcribed, desalted, 5-³²P end-labeled, and assayed in a 3-point dot blot screen (no protein target control, 100 nM human vWF A1 domain (SEQ ID NO 5), or 100 nM rabbit vWF A1 domain (SEQ ID NO 6). The data are presented in the third and fourth columns of Table 9 below as the ratio of the fraction of the aptamer bound to the nitrocellulose in the presence of the target protein to the fraction of aptamer bound in the absence of the target protein. Of the three sequence families, members of Family #1 and # 2 and two individual, non-family aptamers, bound to both human vWF domain A1 (SEQ ID NO 5) and rabbit vWF domain A1 (SEQ ID NO 6).

## GGAGCCACACGACATTGGCGCGAGAGCGCATGGCTCC (mixed, ribo purines, deoxy pyrimidines) [rRdY minimer SEQ 201]
[1]
  IC50: 150 nM

## CGUGCAGUGCCUUCGGCCGTGCGGTGCCUCCGUCACG (mixed, 2'-OMe/deoxy composite, single PS, 3'-idT) [ARC1529]
[2]
  Kd: 12.3 nM

## CGUGCAGUGCCUUUGGCCGTGCGGTGCCUCCGUCACG (mixed, 2'-OMe/deoxy composite, single PS, 3'-idT) [ARC1530]
[3]
  Kd: 15 nM

## GGCGTGCAGTGCCTTCGGCCGTGCGGTGCCTCCGTCACGCC (ssDNA, 2'-OMe at 2; 3'-idT) [ARC1195]
[4]
  Kd: 1 nM

## GGCGTGCAGTGCCTTCGGCCGTGCGGTGCCTCCGTCACGCC (ssDNA, 2'-OMe at 26; 3'-idT) [ARC1219]
[5]
  Kd: 3 nM

## GGCGTGCAGTGCCTTCGGCCGTGCGGTGCCTCCGTCACGCC (ssDNA, 2'-OMe at 39; 3'-idT) [ARC1232]
[6]
  Kd: 1 nM

## GGCGTGCAGTGCCTTCGGCCGTGCGGTGCCTCCGTCACGCC (ssDNA, 2'-OMe at 16; 3'-idT) [ARC1209]
[7]
  Kd: 2 nM

## GGCGTGCAGTGCCTTCGGCCGTGCGGTGCCTCCGTCACGCC (ssDNA, 2'-OMe at 41; 3'-idT) [ARC1234]
[8]
  Kd: 2 nM

## GGCGTGCAGTGCCTTCGGCCGTGCGGTGCCTCCGTCACGCC (ssDNA, 2'-OMe at 18; 3'-idT) [ARC1211]
[9]
  Kd: 2 nM

## GCGUGCAGUGCCUUCGGCCGTGCGGTGCCUCCGUCACGC (mixed, 2'-OMe/deoxy composite, 3'-idT) [ARC1346]
[10]
  Kd: 11 nM

## GCGUGCAGUGCCUUCGGCCGTGCGGTGCCUCCGUCACGC (mixed, 2'-OMe/deoxy composite, single PS between mG20 and dT21, 3'-idT) [ARC1524]
[11]
  Kd: 5.7 nM

## GCGUGCAGUGCCUUCGGCCGTGCGGTGCCUCCGUCACGC (mixed, 2'-OMe/deoxy composite, 3'-idT) [ARC1361]
[12]
  Kd: 7.9 nM

## GCGUGCAGUGCCUUUGGCCGTGCGGTGCCUCCGUCACGC (mixed, 2'-OMe/deoxy composite, single PS, 3'-idT) [ARC1526]
[13]
  Kd: 47 nM

## GCGUGCAGUGCCUUCGGCCGTGCGGTGCCUCCGUCACGC (mixed, 2'-OMe/deoxy composite, single PS between mG20 and dT21, 3'-idT) [ARC1368]
[14]
  Kd: 1.8 nM

B1: ARC1345 (mixed)
mixed: GGCGUGCAGUGCCUUCGGCCGTGCGGTGCCUCCGUCACGCC
modifications: 2'-OMe/deoxy composite with PS 5' of the deoxy residues as printed in Table 22, 3'-idT
[15]
  Kd: 12.1 nM

## GGCGUGCAGTGCCTTCGGCCGTGCGGTGCCTCCGTCACGCC (ssDNA, 2'-OMe at 3,5,36,38,40,41; 3'-idT) [ARC1236]
[16]
  Kd: 3 nM

## GGCGTGCAGTGCCUTCGGCCGTGCGGTGCCTCCGTCACGCC (ssDNA, 2'-OMe at 14 (mU); 3'-idT) [ARC1207]
[17]
  Kd: 2 nM

B2: AMX203.F9 (mixed)
DNA: GGAGCGCACTCAGCCACTGAAGGGTAAGGACGAGGAGGGTATACAGTGTGCGCGTGTATTTCGACCTCTCTGCTAGC
modifications: ribo purines, deoxy pyrimidines
[18]
  binding signal: 1.45 ratio to no protein

Source: patent publication US20060264369, “Aptamers to von Willebrand Factor and their use as thrombotic disease therapeutics” (published 2006)
